How the values were obtained:
[1] = target: Npu^C-CFN (Nostoc puminciforme PCC73102 (Npu)); assay: cell-based or functional assay
[2] = target: Ssp^C A136S-CFN (Synechocystis Species PCC6803 (Ssp)); assay: cell-based or functional assay

Chain of Npu^C-CFN (Nostoc puminciforme PCC73102 (Npu)) (chain, as listed by the source): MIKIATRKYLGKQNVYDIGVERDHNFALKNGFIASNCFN

Q: Which results are given for “Npu^N (AEY-Npu^N, product of plasmid 2 after cleavage of the His6-SUMO tag)”?
A: protein trans-splicing half-life (t1/2) at 30° C., in vitro PTS assay [1]: 50 s; rate of branch resolution [2]: 2 fold

Reference: US20210371467A1
